Reference: IntAct's records for PubMed 24929360

B1: Catenin delta-1 (Mus musculus), P30999 (parent)
chain: MDDSEVESTASILASVKEQEAQFEKLTRALEEERRHVSAQLERVRVSPQDANSLMANGTLTRRHQNGRFVGDADLERQKFSDLKLNGPQDHNHLLYSTIPRMQEPGQIVETYTEEDPEGAMSVVSVETTDDGTTRRTETTVKKVVKTMTTRTVQPVPMGPDGLPVDASAVSNNYIQTLGRDFRKNGNGGPGPYVGQAGTATLPRNFHYPPDGYGRHYEDGYPGGSDNYGSLSRVTRIEERYRPSMEGYRAPSRQDVYGPQPQVRVGGSSVDLHRFHPEPYGLEDDQRSMGYDDLDYGMMSDYGTARRTGTPSDPRRRLRSYEDMIGEEVPPDQYYWAPLAQHERGSLASLDSLRKGMPPPSNWRQPELPEVIAMLGFRLDAVKSNAAAYLQHLCYRNDKVKTDVRKLKGIPILVGLLDHPKKEVHLGACGALKNISFGRDQDNKIAIKNCDGVPALVRLLRKARDMDLTEVITGTLWNLSSHDSIKMEIVDHALHALTDEVIIPHSGWEREPNEDCKPRHIEWESVLTNTAGCLRNVSSERSEARRKLRECDGLVDALIFIVQAEIGQKDSDSKLVENCVCLLRNLSYQVHREIPQAERYQEALPTVANSTGPHAASCFGAKKGKDEWFSRGKKPTEDPANDTVDFPKRTSPARGYELLFQPEVVRIYISLLKESKTPAILEASAGAIQNLCAGRWTYGRYIRSALRQEKALSAIAELLTSEHERVVKAASGALRNLAVDARNKELIGKHAIPNLVKNLPGGQQNSSWNFSEDTVVSILNTINEVIAENLEAAKKLRETQGIEKLVLINKSGNRSEKEVRAAALVLQTIWGYKELRKPLEKEGWKKSDFQVNLNNASRSQSSHSYDDSTLPLIDRNQKSDKKPDREEIPMSNMGSNTKSLDNNYSTLNERGDHNRTLDRSGDLGDMEPLKGAPLMQKI

Variants of: B1
Settings: with cadh2_mouse Cdh2, P15116
Sequence of cadh2_mouse Cdh2, P15116 (P15116 whole entry): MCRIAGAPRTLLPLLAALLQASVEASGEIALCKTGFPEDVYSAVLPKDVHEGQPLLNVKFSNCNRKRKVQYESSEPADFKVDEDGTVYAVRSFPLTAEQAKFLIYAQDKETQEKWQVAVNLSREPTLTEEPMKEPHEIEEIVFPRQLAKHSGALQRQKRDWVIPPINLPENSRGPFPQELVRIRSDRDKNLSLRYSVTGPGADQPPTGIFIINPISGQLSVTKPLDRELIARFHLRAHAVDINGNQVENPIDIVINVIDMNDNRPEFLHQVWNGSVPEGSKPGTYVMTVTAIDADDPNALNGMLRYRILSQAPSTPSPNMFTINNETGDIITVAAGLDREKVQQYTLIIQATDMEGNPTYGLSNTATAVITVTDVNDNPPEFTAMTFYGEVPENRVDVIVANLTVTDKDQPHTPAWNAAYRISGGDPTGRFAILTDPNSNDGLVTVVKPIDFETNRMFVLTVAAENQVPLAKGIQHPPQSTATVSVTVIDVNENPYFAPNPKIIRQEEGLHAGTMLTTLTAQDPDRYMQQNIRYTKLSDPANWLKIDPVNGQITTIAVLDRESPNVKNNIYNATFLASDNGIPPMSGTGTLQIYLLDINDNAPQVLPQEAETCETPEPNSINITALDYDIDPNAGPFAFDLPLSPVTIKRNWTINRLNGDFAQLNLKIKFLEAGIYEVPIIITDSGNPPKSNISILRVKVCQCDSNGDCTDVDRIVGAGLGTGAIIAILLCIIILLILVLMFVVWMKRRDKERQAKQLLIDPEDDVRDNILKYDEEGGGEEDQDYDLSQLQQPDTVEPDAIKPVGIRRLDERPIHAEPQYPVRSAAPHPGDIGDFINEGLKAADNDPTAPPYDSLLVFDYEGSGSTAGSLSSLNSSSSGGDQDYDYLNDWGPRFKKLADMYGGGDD

| effect of a mutation on the interaction | Variant |
| --- | --- |
| increasing interaction strength | T310A |
